Experiment [1] deals with T1, Fc tagged mouse TNFR2 (Sino Biological) (mouse, UniProt P25119 23-258).
T1 construct: Bought reagent; also called mTNFR2; mTNF2; not shown: Fc tag of the bought protein
T1 sequence (looked up): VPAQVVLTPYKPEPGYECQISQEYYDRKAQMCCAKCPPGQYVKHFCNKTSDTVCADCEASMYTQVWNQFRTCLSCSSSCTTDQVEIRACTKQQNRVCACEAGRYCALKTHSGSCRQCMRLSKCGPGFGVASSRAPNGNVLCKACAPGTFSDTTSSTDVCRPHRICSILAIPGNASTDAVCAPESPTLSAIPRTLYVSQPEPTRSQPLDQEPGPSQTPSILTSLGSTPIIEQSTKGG
Put plainly: SPR (Biacore T200) single cycle kinetics, Fc-tagged receptor captured on Protein A chip, TNF protein as analyte at 1.67-15 nM. As for the experimental part: Single cycle kinetic analysis was performed using a Biacore T200 (serial no. 1909913) running Biacore T200 Evaluation Software V2.0.1 (Uppsala, Sweden). All experiments were run at 25° C. with HBS-P+ running buffer (pH 7.4) (GE Healthcare, Little Chalfont, UK).
Due to the limit in the number of available flow cells for analysis (three Fc per analysis, Fc2, Fc3 and Fc4, with Fc1 always being used as blank reference for non-specific subtraction), receptor binding was assessed in two separate overlapping runs using either: hTNFR1 (Fc2), hTNFR2 (Fc3) and mTNFR1 (Fc4), or; hTNFR1 (Fc2), […] and mTNFR2 (Fc4). Receptors were diluted in running buffer to a concentration of ˜4 μg/mL and at the start of each cycle loaded onto Fc2, Fc3 and Fc4 of a Protein A chip (GE Healthcare, Little Chalfont, UK) at a flow rate of 10 μL/min to give an RU of 40-100. The surface was then allowed to stabilise. Single cycle kinetic data was obtained at a flow rate of 45 μL/min. […] The association phase for the three injections of increasing concentrations of TNF was monitored for 240 seconds and a single dissociation phase was measured for 2700 seconds following the last injection of TNF. Regeneration of the Protein A surface was conducted using 10 mM glycine-HCl pH 1.5. The signal from the reference channel Fc1 (no receptor) was subtracted from that of Fc2, Fc3 and Fc4 to correct for differences in non-specific binding to a reference surface.
Controls were used to ensure the integrity of the receptors during the Biacore run.

Experiment [2] addresses T2, Fc tagged human TNFR2 (Sino Biological) (human, UniProt P20333 23-257).
T2 construct: Bought reagent; also called hTNFR2; hTNFR2-Fc; not shown: Fc tag of the bought protein
T2 sequence (looked up): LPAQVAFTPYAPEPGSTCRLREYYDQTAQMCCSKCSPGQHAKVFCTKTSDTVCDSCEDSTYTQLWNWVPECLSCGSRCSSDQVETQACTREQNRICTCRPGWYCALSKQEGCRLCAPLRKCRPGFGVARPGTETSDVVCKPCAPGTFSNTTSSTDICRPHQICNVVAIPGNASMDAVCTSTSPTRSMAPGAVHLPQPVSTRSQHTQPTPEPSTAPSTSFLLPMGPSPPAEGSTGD
Nature of the experiment: SPR, Biacore T200 multi cycle kinetics, receptor-Fc captured on Protein A chip, TNF 1.25-40 nM, 1:1 model. As for the experimental part:
(§1) Multi cycle kinetics analysis of binding to hTNFR1, hTNFR2, mTNFR1 and mTNFR2 was performed on the 10 lead variants using a Biacore T200 (serial no. 1909913) instrument running Biacore T200 Evaluation Software V3.0.1 (Uppsala, Sweden) to characterise further the binding to these receptors.
(§2) As with the single cycle kinetics, receptor binding was assessed in two separate experiments. In the first set of experiments binding to hTNFR1 (Fc2), hTNFR2 (Fc3) and mTNFR1 (Fc4) was assessed. In the second set of experiments the extent of mTNF2 (Fc4) binding was assessed using hTNFR1 (Fc2) and hTNFR2 (Fc3) as controls. All receptors were diluted in running buffer to a concentration of ˜4 μg/mL and at the start of each cycle loaded onto Fc2, Fc3 and Fc4 of a Protein A CM5 chip and captured at a flow rate of 10 μL/min to give an RU of ˜40-100. The surface was then allowed to stabilise. All kinetic data was obtained using a flow rate of 75 μl/min to minimise any potential mass transfer effects. […] The association phase of TNF was monitored for 280 seconds and the dissociation phase was measured for 2100 seconds. […] Regeneration of the Protein A surface was conducted using two injections of 10 mM glycine-HCL pH 1.5 at the end of each cycle. The signal from the reference channel Fc1 was subtracted from that of Fc2, Fc3 and Fc4 to correct for differences in non-specific binding to a reference surface, and a global Rmax parameter was used in the 1-to-1 binding model.
A general note: Surface plasmon resonance follows binding to a sensor surface in real time, without labels.

The target of experiment [3] is T3, Fc tagged mouse TNFR1 (Sino Biological) (mouse, UniProt P25118 22-212, limits assumed).
T3 construct: Bought reagent; also called mTNFR1; mTNFR1-Fc; not shown: Fc tag of the bought protein
T3 sequence (looked up): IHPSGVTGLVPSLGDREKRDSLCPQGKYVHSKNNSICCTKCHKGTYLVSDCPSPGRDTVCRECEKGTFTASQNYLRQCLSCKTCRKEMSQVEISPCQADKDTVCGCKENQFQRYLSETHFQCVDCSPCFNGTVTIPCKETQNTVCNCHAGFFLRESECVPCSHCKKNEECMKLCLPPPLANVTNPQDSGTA
The experiment is described as above. As for the experimental part: as §1, §2

In experiment [4] the target is T4, Fc tagged human TNFR1 (Sino Biological) (human, UniProt P19438 22-211, limits assumed).
T4 construct: Bought reagent; also called hTNFR1; hTNFR1-Fc; not shown: Fc tag of the bought protein
T4 sequence (looked up): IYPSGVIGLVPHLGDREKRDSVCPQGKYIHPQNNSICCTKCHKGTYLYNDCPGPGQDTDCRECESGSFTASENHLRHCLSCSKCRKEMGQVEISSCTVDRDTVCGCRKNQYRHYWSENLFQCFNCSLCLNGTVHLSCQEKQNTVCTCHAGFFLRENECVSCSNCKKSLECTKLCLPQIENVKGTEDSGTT
Described as above. The method, then:
as §1, §2

B1: TNF mutein B2 (ligand)
chain: VRSSSRTPSDKPVAHVVANPQAEGQLQWLNRRANALLANGVELRDNQLVVPSEGLYLIYSQVLFKGQGCPSTHVLLTHTISRITASYSGKVNLLSAIKSPCQRETPEGAEAKPWYEPIYLGGVFQLEKGDRLSAEINRPDYLDFAESGQVYFGIIAL
notes: Human TNF mutein, TASYSG at positions 84-89; not shown: C-terminal FLAG tag and His6 tag from vector pANT65
With B1, the binding result in experiment [1] was “no binding (tested: 15 nM)”. Also, the Kd in experiment [2] stood at 407 pM; in experiment [3], 177 pM; in experiment [4] it was 21.6 pM.

As usually defined, the Kd is the concentration at which binding is half-saturated. The low end stands for tighter binding, the high end for weaker binding.

Source of the values: patent US20220387557A1 (OXFORD UNIVERSITY INNOVATION, published 2022).
